From patent US20170081400A1 (CEPHALON, published 2017)

T1: human TL1A extracellular domain with N-terminal HIS and FLAG tag (human) (UniProt O95150)
T1 sequence: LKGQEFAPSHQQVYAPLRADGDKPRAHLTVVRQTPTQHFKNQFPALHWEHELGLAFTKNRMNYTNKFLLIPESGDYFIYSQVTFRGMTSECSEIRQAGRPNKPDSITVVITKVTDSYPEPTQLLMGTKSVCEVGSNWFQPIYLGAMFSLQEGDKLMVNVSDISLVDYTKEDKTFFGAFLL

T2: human TL1A extracellular domain with N-terminal HIS and FLAG tag (human, UniProt O95150 72-251)
T2 construct: the whole entry is named
T2 sequence: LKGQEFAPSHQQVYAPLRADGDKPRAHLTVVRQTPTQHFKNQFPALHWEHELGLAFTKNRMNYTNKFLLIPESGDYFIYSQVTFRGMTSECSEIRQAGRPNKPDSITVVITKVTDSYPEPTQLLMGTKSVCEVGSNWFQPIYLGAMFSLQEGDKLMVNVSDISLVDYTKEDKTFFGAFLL

B1: 320-313 (antibody, human IgG1, name in Kabat numbering, V domains shown)
VH: QVQLVQSGAEVKKPGASVKVSCKASGYTFTSYDINWVRQAPGQGLEWMGWLNPNSGNTGYAQKFQGRVTMTADRSTSTAYMELSSLRSEDTAVYYCAREVPETAAFEYWGQGTLVTVSS
VL: QSVLTQPPSVSGAPGQRVTISCTSSSSDIGAGLGVHWYQQLPGTAPKLLIEGYYNRPSGVPDRFSGSKSGTSASLTITGLLPEDEGDYYCHSYDGTLSALFGGGTKLTVLG
notes: human IgG1, lambda
B2: 320-314 (antibody, human IgG1, name in Kabat numbering, V domains shown)
VH: QVQLVQSGAEVKKPGASVKVSCKASGYTFTSYDINWVRQAPGQGLEWMGWLNPNSGNTGYAQKFQGRVTMTADRSTSTAYMELSSLRSEDTAVYYCAREVPETAAFEYWGQGTLVTVSS
VL: QSVLTQPPSVSGAPGQRVTISCTSSSSDIGAGLGVHWYQQLPGTAPKLLIEGYYNRPSGVPDRFSGSKSGTSASLTITGLLPEDEGDYYCKSYDGTLSALFGGGTKLTVLG
notes: human IgG1, lambda
B3: 320-318 (antibody, human IgG1, name in Kabat numbering, V domains shown)
VH: QVQLVQSGAEVKKPGASVKVSCKASGYTFTSYDINWVRQAPGQGLEWMGWLNPNSGNTGYAQKFQGRVTMTADRSTSTAYMELSSLRSEDTAVYYCAREVPETAAFEYWGQGTLVTVSS
VL: QSVLTQPPSVSGAPGQRVTISCTSSSSDIGAGLGVHWYQQLPGTAPKLLIEGYYNRPSGVPDRFSGSKSGTSASLTITGLLPEDEGDYYCQAYDGTLSALFGGGTKLTVLG
notes: human IgG1, lambda
B4: 320-326 (antibody, human IgG1, name in Kabat numbering, V domains shown)
VH: QVQLVQSGAEVKKPGASVKVSCKASGYTFTSYDINWVRQAPGQGLEWMGWLNPNSGNTGYAQKFQGRVTMTADRSTSTAYMELSSLRSEDTAVYYCAREVPETAAFEYWGQGTLVTVSS
VL: QSVLTQPPSVSGAPGQRVTISCTSSSSDIGAGLGVHWYQQLPGTAPKLLIEGYYNRPSGVPDRFSGSKSGTSASLTITGLLPEDEGDYYCQSSDGTLSALFGGGTKLTVLG
notes: human IgG1, lambda
B5: 320-328 (antibody, human IgG1, name in Kabat numbering, V domains shown)
VH: QVQLVQSGAEVKKPGASVKVSCKASGYTFTSYDINWVRQAPGQGLEWMGWLNPNSGNTGYAQKFQGRVTMTADRSTSTAYMELSSLRSEDTAVYYCAREVPETAAFEYWGQGTLVTVSS
VL: QSVLTQPPSVSGAPGQRVTISCTSSSSDIGAGLGVHWYQQLPGTAPKLLIEGYYNRPSGVPDRFSGSKSGTSASLTITGLLPEDEGDYYCQSHDGTLSALFGGGTKLTVLG
notes: human IgG1, lambda
B6: 320-345 (antibody, human IgG1, name in Kabat numbering, V domains shown)
VH: QVQLVQSGAEVKKPGASVKVSCKASGYTFTSYDINWVRQAPGQGLEWMGWLNPNSGNTGYAQKFQGRVTMTADRSTSTAYMELSSLRSEDTAVYYCAREVPETAAFEYWGQGTLVTVSS
VL: QSVLTQPPSVSGAPGQRVTISCTSSSSDIGAGLGVHWYQQLPGTAPKLLIEGYYNRPSGVPDRFSGSKSGTSASLTITGLLPEDEGDYYCQSYDKTLSALFGGGTKLTVLG
notes: human IgG1, lambda
B7: 320-368 (antibody, human IgG1, name in Kabat numbering, V domains shown)
VH: QVQLVQSGAEVKKPGASVKVSCKASGYTFTSYDINWVRQAPGQGLEWMGWLNPNSGNTGYAQKFQGRVTMTADRSTSTAYMELSSLRSEDTAVYYCAREVPETAAFEYWGQGTLVTVSS
VL: QSVLTQPPSVSGAPGQRVTISCTSSSSDIGAGLGVHWYQQLPGTAPKLLIEGYYNRPSGVPDRFSGSKSGTSASLTITGLLPEDEGDYYCQSYDGTLKALFGGGTKLTVLG
notes: human IgG1, lambda
B8: 320-369 (antibody, human IgG1, name in Kabat numbering, V domains shown)
VH: QVQLVQSGAEVKKPGASVKVSCKASGYTFTSYDINWVRQAPGQGLEWMGWLNPNSGNTGYAQKFQGRVTMTADRSTSTAYMELSSLRSEDTAVYYCAREVPETAAFEYWGQGTLVTVSS
VL: QSVLTQPPSVSGAPGQRVTISCTSSSSDIGAGLGVHWYQQLPGTAPKLLIEGYYNRPSGVPDRFSGSKSGTSASLTITGLLPEDEGDYYCQSYDGTLLALFGGGTKLTVLG
notes: human IgG1, lambda
B9: 320-370 (antibody, human IgG1, name in Kabat numbering, V domains shown)
VH: QVQLVQSGAEVKKPGASVKVSCKASGYTFTSYDINWVRQAPGQGLEWMGWLNPNSGNTGYAQKFQGRVTMTADRSTSTAYMELSSLRSEDTAVYYCAREVPETAAFEYWGQGTLVTVSS
VL: QSVLTQPPSVSGAPGQRVTISCTSSSSDIGAGLGVHWYQQLPGTAPKLLIEGYYNRPSGVPDRFSGSKSGTSASLTITGLLPEDEGDYYCQSYDGTLWALFGGGTKLTVLG
notes: human IgG1, lambda
B10: 320-371 (antibody, human IgG1, name in Kabat numbering, V domains shown)
VH: QVQLVQSGAEVKKPGASVKVSCKASGYTFTSYDINWVRQAPGQGLEWMGWLNPNSGNTGYAQKFQGRVTMTADRSTSTAYMELSSLRSEDTAVYYCAREVPETAAFEYWGQGTLVTVSS
VL: QSVLTQPPSVSGAPGQRVTISCTSSSSDIGAGLGVHWYQQLPGTAPKLLIEGYYNRPSGVPDRFSGSKSGTSASLTITGLLPEDEGDYYCQSYDGTLYALFGGGTKLTVLG
notes: human IgG1, lambda
B11: 320-432 (antibody, human IgG1, name in Kabat numbering, V domains shown)
VH: QVQLVQSGAEVKKPGASVKVSCKASGYTFTQYDINWVRQAPGQGLEWMGWLNPNSGNTGYAQKFQGRVTMTADRSTSTAYMELSSLRSEDTAVYYCAREVPETAAFEYWGQGTLVTVSS
VL: QSVLTQPPSVSGAPGQRVTISCTSSSSDIGAGLGVHWYQQLPGTAPKLLIEGYYNRPSGVPDRFSGSKSGTSASLTITGLLPEDEGDYYCQSYDGTLSALFGGGTKLTVLG
notes: human IgG1, lambda
B12: 320-433 (antibody, human IgG1, name in Kabat numbering, V domains shown)
VH: QVQLVQSGAEVKKPGASVKVSCKASGYTFTDYDINWVRQAPGQGLEWMGWLNPNSGNTGYAQKFQGRVTMTADRSTSTAYMELSSLRSEDTAVYYCAREVPETAAFEYWGQGTLVTVSS
VL: QSVLTQPPSVSGAPGQRVTISCTSSSSDIGAGLGVHWYQQLPGTAPKLLIEGYYNRPSGVPDRFSGSKSGTSASLTITGLLPEDEGDYYCQSYDGTLSALFGGGTKLTVLG
notes: human IgG1, lambda
B13: 320-434 (antibody, human IgG1, name in Kabat numbering, V domains shown)
VH: QVQLVQSGAEVKKPGASVKVSCKASGYTFTKYDINWVRQAPGQGLEWMGWLNPNSGNTGYAQKFQGRVTMTADRSTSTAYMELSSLRSEDTAVYYCAREVPETAAFEYWGQGTLVTVSS
VL: QSVLTQPPSVSGAPGQRVTISCTSSSSDIGAGLGVHWYQQLPGTAPKLLIEGYYNRPSGVPDRFSGSKSGTSASLTITGLLPEDEGDYYCQSYDGTLSALFGGGTKLTVLG
notes: human IgG1, lambda
B14: 320-435 (antibody, human IgG1, name in Kabat numbering, V domains shown)
VH: QVQLVQSGAEVKKPGASVKVSCKASGYTFTLYDINWVRQAPGQGLEWMGWLNPNSGNTGYAQKFQGRVTMTADRSTSTAYMELSSLRSEDTAVYYCAREVPETAAFEYWGQGTLVTVSS
VL: QSVLTQPPSVSGAPGQRVTISCTSSSSDIGAGLGVHWYQQLPGTAPKLLIEGYYNRPSGVPDRFSGSKSGTSASLTITGLLPEDEGDYYCQSYDGTLSALFGGGTKLTVLG
notes: human IgG1, lambda
B15: 320-436 (antibody, human IgG1, name in Kabat numbering, V domains shown)
VH: QVQLVQSGAEVKKPGASVKVSCKASGYTFTWYDINWVRQAPGQGLEWMGWLNPNSGNTGYAQKFQGRVTMTADRSTSTAYMELSSLRSEDTAVYYCAREVPETAAFEYWGQGTLVTVSS
VL: QSVLTQPPSVSGAPGQRVTISCTSSSSDIGAGLGVHWYQQLPGTAPKLLIEGYYNRPSGVPDRFSGSKSGTSASLTITGLLPEDEGDYYCQSYDGTLSALFGGGTKLTVLG
notes: human IgG1, lambda

Tests used:
[1] = target: T1, human TL1A extracellular domain with N-terminal HIS and FLAG tag (human); test: cell-based or functional assay
[2] = target: T2, human TL1A extracellular domain with …; test: SPR Run 4, purified Ab captured on Protein A, TL1A 5 ug/mL, timepoint 44
Description: (§1) 1.5. Antibody expression and antigen binding as determined by SPR. Using a CM5 sensor chip (GE Healthcare) Protein A (Pierce) was coupled to the chip surface using an amine coupling kit (GE Healthcare). Protein A was coupled on flow cell 1 and 2 (or alternatively 3 and 4) using a BIACORE® T200. […] The amount of supernatant or purified protein (as well as the concentration) injected during the capture stage varied between runs and is specified in the header of the Tables 3-11. At the end of injection of the supernatant or purified antibody the change in response units was measured. This value was reported as Capture Level in Tables 3-11. […] The response units were measured prior to the end of the dissociation phase. […] The sensorgrams were double referenced (flow cell 2 is subtracted from flow cell 1 and a buffer blank). As there were a large number of antibody variants to screen, these were screened across different runs (Tables 3-11). […] A summary of the conditions used in each run is below:
(§2) 2.1. […] In some experiment the antibodies were purified using Protein A chromatography (See 1.4) and purified antibodies were used in BIACORE® (GE Healthcare) experiments.

[3] = target: T2, human TL1A extracellular domain with …; test: SPR Run 4, purified Ab captured on Protein A, TL1A 5 ug/mL, timepoint 220
Description: as §1, §2

[4] = target: T2, human TL1A extracellular domain with …; test: SPR Run 6, purified Ab captured on Protein A, TL1A 5 ug/mL, timepoint 44
Description: as §1, §2

[5] = target: T2, human TL1A extracellular domain with …; test: SPR Run 6, purified Ab captured on Protein A, TL1A 5 ug/mL, timepoint 170
Description: as §1, §2

Binder	Antibody IC50, TL1A induced caspase potency assay in TF-1 cells [1] [µg/mL]	Fold improvement over 320-179, TL1A induced caspase potency assay in TF-1 cells [1] [fold]	TL1A Binding Level (Early) [2] [RU]	TL1A Binding Level (Late) [3] [RU]	TL1A Binding Level (Early) [4] [RU]	TL1A Binding Level (Late) [5] [RU]
B1	0.02	2	141	132	–	–
B2	0.02	2	165	158	–	–
B3	0.02	3	160	149	–	–
B4	0.03	2	126	120	–	–
B5	0.02	1	155	146	–	–
B6	0.02	1	163	154	–	–
B7	–	–	50	26	–	–
B8	–	–	89	60	–	–
B9	–	–	66	39	–	–
B10	–	–	92	70	–	–
B11	–	–	–	–	116	106
B12	–	–	–	–	90	83
B13	–	–	–	–	125	113
B14	–	–	–	–	92	83
B15	–	–	–	–	129	118
